Data on one molecule can be found in patent US20230399641A1 (SHANGHAITECH UNIVERSITY, published 2023).

One may read the Kd as a measure of binding affinity in units of concentration.

This assay has as its target extracellular protease domain of wildtype human ACE2 (residues 19-615) (human, UniProt Q9BYF1 19-615).

Chain of extracellular protease domain of wildtype human ACE2 (residues 19-615) (Q9BYF1 19-615): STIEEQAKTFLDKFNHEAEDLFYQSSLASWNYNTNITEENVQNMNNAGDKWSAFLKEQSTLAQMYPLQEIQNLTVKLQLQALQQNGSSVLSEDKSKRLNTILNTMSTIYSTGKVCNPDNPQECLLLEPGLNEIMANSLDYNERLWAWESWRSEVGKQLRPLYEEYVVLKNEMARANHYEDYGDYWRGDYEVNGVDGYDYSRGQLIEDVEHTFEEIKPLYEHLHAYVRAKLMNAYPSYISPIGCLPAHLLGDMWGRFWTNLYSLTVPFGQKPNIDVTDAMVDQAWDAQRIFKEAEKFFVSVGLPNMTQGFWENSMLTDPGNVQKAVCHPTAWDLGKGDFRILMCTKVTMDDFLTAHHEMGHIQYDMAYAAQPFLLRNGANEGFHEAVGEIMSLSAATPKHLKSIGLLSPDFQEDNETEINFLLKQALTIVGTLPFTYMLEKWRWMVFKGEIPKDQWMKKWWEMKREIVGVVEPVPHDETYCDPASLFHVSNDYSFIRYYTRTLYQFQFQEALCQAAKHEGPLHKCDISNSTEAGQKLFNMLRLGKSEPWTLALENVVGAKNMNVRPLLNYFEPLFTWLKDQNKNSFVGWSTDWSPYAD

B1: receptor binding domain (RBD) of HCoV-NL63 spike (residues 481-616) (ligand)
chain: QHTDINFTATASFGGSCYVCKPHQVNISLNGNTSVCVRTSHFSIRYIYNRVKSGSPGDSSWHIYLKSGTCPFSFSKLNNFQKFKTICFSTVEVPGSCNFPLEATWHYTSYTIVGALYVTWSEGNSITGVPYPVSGI
In the case of B1, the Kd worked out at 430 nM.
